Molecular target: Neurofibromin (NF1), recombinant full-length NF1 isoform 2 (human) (UniProt P21359)
Assay: mass photometry
Conditions: remark: other sources report otherwise

stoichiometry N: 2
Substance: Neurofibromin (NF1), recombinant full-length NF1 isoform 2, P21359 1-2839

From publication doi:10.1101/2023.12.06.569572
